Measured values published in patent US20260124313A1, “SITE-SPECIFIC COVALENT LIGATION OF HUMAN SERUM ALBUMIN” (The Regents of the University of California, priority 2022, published 2026).
Non-standard residues stand in square brackets, D forms with d. No end group written: not given here. *: point of attachment. Myristoyl = CCCCCCCCCCCCCC(=O)*; Aad = N[C@@H](CCCC(=O)O)C(=O)O; Acryloyl = C=CC(=O)*

Molecular target: T1, albumin in human serum (Homo sapiens, UniProt P02768)
T1 construct: tissue Sigma Aldrich; host or cells: human serum
Test: Conjugation to serum-borne HSA in human serum, SDS-PAGE fluorescence and Coomassie Blue
Type: biochemical
Description: Protein SDS-PAGE gels were exposed at green channel (Exc.=490 nm, Emm.=525 nm), then stained by Coomassie Blue.
To 100 μl human serum was added 10 μl FC-LYL1 or 10 μl FC-Mal stock solution (1 mM). The albumin content in serum is presumed to be 600 μM for healthy donors. The final concentrations of albumin and FC-labeled reactive probes in the reaction mixture are calculated to be 545 µM and 91 μM, respectively. The serum/ligands mixture was incubated at 37° C. in dark. The conjugation reactions were setup every 3 days, and […] conjugation reactions were setup in total for 3 weeks. The serum mixtures were subjected to electrophoresis and Coommassie Blue Staining without further treatment. Since albumin to probe ratio was about 6:1 and there are 5 known fatty acid binding sites on each albumin molecule, fatty acid binding site:probe ratio was over […]. We therefore believe significant portion of the reactive probes would be sequestered in the “non-productive” (no covalent ligation) fatty acid binding sites most of the time.

reaction speed in human serum (545 μM albumin, 91 μM probe, 37° C.): slow reaction over days
selectivity of protein labeling in serum (human serum, SDS-PAGE green channel): can selectively label albumin content
Substance: FC-LYL1: FITC-tagged LYL1 (Myristoyl-[dE]DK(Acryloyl)[dS][Aad]; not fully specified (C-terminus); also: FITC on amino group of C-terminal lysine)
